Results as given in publication PMC5294574, “Stoichiometry and structure of a lantibiotic maturation complex” (Scientific Reports, 2017).

Tests used:
[1] = biological target: NisB (lantibiotic dehydratase) (Lactococcus lactis) (UniProt P20103); experiment: SEC-MALS; 20 μM NisB and 200 μM prenisin peptide variant kept constant, NisC varied from 10 μM to 160 μM; 50 mM HEPES-NaOH, pH 7.5, 500 mM NaCl
[2] = biological target: NisC (lantibiotic cyclase) (Lactococcus lactis) (UniProt Q03202); experiment: as above
[3] = biological target: NisB (lantibiotic dehydratase) (Lactococcus lactis) (UniProt P20103); experiment: SEC-MALS; 20 μM NisC or 20 μM NisB incubated with 200 μM unmodified prenisin peptide for 1 h at 25 °C; 50 mM HEPES-NaOH, pH 7.5, 500 mM NaCl
[4] = biological target: NisC (lantibiotic cyclase) (Lactococcus lactis) (UniProt Q03202); experiment: as above
[5] = biological target: the molecule itself; experiment: SEC-MALS; isolated NisB or NisC, 200 μL of a 20 μM solution; 50 mM HEPES-NaOH, pH 7.5, 500 mM NaCl

Chain of NisC (lantibiotic cyclase) (Lactococcus lactis) (Q03202 whole entry): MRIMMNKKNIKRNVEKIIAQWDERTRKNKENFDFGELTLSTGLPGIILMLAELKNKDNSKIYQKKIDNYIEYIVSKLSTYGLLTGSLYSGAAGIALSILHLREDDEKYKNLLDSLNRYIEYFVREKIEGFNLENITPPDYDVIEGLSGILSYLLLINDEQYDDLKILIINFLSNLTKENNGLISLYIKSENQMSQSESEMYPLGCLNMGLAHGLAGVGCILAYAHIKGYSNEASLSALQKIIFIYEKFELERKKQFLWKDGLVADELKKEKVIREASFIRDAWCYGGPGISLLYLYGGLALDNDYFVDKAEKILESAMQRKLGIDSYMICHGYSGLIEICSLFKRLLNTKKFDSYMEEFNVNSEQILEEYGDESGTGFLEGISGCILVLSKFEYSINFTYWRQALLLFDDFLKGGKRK

stoichiometry N (prenisin per NisB dimer) [1]	stoichiometry N (prenisin per NisC monomer) [2]	stoichiometry N (per NisB dimer) [3]	stoichiometry N (per NisC monomer) [4]	Molecule	stoichiometry N [5]
1	1	1	1	unmodified prenisin peptide	
				NisB (lantibiotic dehydratase) (enzyme, Lactococcus lactis, Nisin dehydratase NisB of Lactococcus lactis; theoretical molecular weight of the dimer 236.6 kDa; Dimer by MALS-SEC and SAXS; also called dehydratase NisB; apo-NisB; source: L. lactis NZ9000, homologously expressed, purified (IMAC, SEC)) MIKSSFKAQPFLVRNTILCPNDKRSFTEYTQVIETVSKNKVFLEQLLLANPKLYDVMQKYNAGLLKKKRVKKLFESIYKYYKRSYLRSTPFGLFSETSIGVFSKSSQYKLMGKTTKGIRLDTQWLIRLVHKMEVDFSKKLSFTRNNANYKFGDRVFQVYTINSSELEEVNIKYTNVYQIISEFCENDYQKYEDICETVTLCYGDEYRELSEQYLGSLIVNHYLISNLQKDLLSDFSWNTFLTKVEAIDEDKKYIIPLKKVQKFIQEYSEIEIGEGIEKLKEIYQEMSQILENDNYIQIDLISDSEINFDVKQKQQLEHLAEFLGNTTKSVRRTYLDDYKDKFIEKYGVDQEVQITELFDSTFGIGAPYNYNHPRNDFYESEPSTLYYSEEEREKYLSMYVEAVKNHNVINLDDLESHYQKMDLEKKSELQGLELFLNLAKEYEKDIFILGDIVGNNNLGGASGRFSALSPELTSYHRTIVDSVERENENKEITSCEIVFLPENIRHANVMHTSIMRRKVLPFFTSTSHNEVLLTNIYIGIDEKEKFYARDISTQEVLKFYITSMYNKTLFSNELRFLYEISLDDKFGNLPWELIYRDFDYIPRLVFDEIVISPAKWKIWGRDVNSKMTIRELIQSKEIPKEFYIVNGDNKVYLSQKNPLDMEILESAIKKSSKRKDFIELQEYFEDENIINKGEKGRVADVVVPFIRTRALGNEGRAFIREKRVSVERREKLPFNEWLYLKLYISINRQNEFLLSYLPDIQKIVANLGGNLFFLRYTDPKPHIRLRIKCSDLFLAYGSILEILKRSRKNRIMSTFDISIYDQEVERYGGFDTLELSEAIFCADSKIIPNLLTLIKDTNNDWKVDDVSILVNYLYLKCFFQNDNKKILNFLNLVSTKKVKENVNEKIEHYLKLLKVNNLGDQIFYDKNFKELKHAIKNLFLKMIAQDFELQKVYSIIDSIIHVHNNRLIGIERDKEKLIYYTLQRLFVSEEYMK	2
